B1: LINE1-full (parent)
chain: UACGUAGGUGGUUUUCCCCUGAUAGUGCUAAGGGGGCCUGGAAGUUUGGACUGGGCAGAGCUCAACACAGCGUGGCAAAGUGGCUGUGGCUAGACUGCCUCUCUGGAUUCCUCGUCACUCAGCAGGGCAUCUCUGAGAGAAAUGCC

In the data set the parent is B1. The data set is described as follows: self-cleavage, relative activity (ratio to wild type); higher = more cleavage; in vitro, sequencing; the parent is a self-cleaving ribozyme.
For G11U A79U, the self-cleavage turned out to be 1.75.

Turning to U12A U81A, the self-cleavage is 1.89.

Turning to U9C C98G, the self-cleavage stood at 0.22.

Take U12A U52C: the self-cleavage came to 1.06.

With U12A U52A, the self-cleavage turned out to be 1.28.

As to U9C A124U, the self-cleavage turned out to be 1.26.

As for U9A U100C, the self-cleavage stood at 1.18.

As to U9A U12G, the self-cleavage was found to be 0.67.

In the case of U9A U12C, the self-cleavage was found to be 0.86.

Regarding U9C C145A, the self-cleavage stood at 1.3.

Turning to U9A U102C, the self-cleavage was 1.03.

For the variant G11A U12G, the self-cleavage was found to be 0.47.

G11A U12C: the self-cleavage is 0.33.

Take U9C C95G: the self-cleavage was 0.12.

On to U9C A67U, for which the self-cleavage was 0.26.

Consider U9C A67G, for which the self-cleavage was determined as 0.48.

Consider U9G U132A, for which the self-cleavage came to 0.59.

In the case of U12A U39C, the self-cleavage came out at 1.17.

Consider G11A A124U, for which the self-cleavage was found to be 1.43.

Consider U9G C116G, for which the self-cleavage is 1.18.

With U9G C68U, the self-cleavage came out at 0.21.

Regarding U12A U87C, the self-cleavage stood at 0.25.

G11A A77U: the self-cleavage amounted to 1.58.

In the case of G11U U20C, the self-cleavage is 0.34.

U9C U23C: the self-cleavage came out at 1.68.

For G10A A77G, the self-cleavage stood at 1.31.

U12A A50C: the self-cleavage stood at 0.57.

Regarding U12A A50G, the self-cleavage amounted to 1.45.

With U9A U104C, the self-cleavage is 1.17.

With U9G A64C, the self-cleavage is 0.18.

Consider U9G A64U, for which the self-cleavage amounted to 0.53.

In the case of U9A U47C, the self-cleavage was found to be 1.37.

Regarding U9C U85G, the self-cleavage is 0.27.

As for U9C G126U, the self-cleavage was determined as 1.68.

Take U9A U81C: the self-cleavage was 1.1.

For the variant U9A U134C, the self-cleavage came to 1.4.

Consider U9C C146U, for which the self-cleavage was 1.1.

As for G11A U108C, the self-cleavage worked out at 1.58.

In the case of U9A C128U, the self-cleavage worked out at 0.9.

Turning to U12A G127A, the self-cleavage stood at 0.66.

U9C A117U: the self-cleavage was found to be 1.62.

U9C A117G: the self-cleavage amounted to 1.53.

U9G U62C: the self-cleavage worked out at 0.16.

Consider U9C C66U, for which the self-cleavage was determined as 0.08.

On to G10A U62C, for which the self-cleavage is 0.06.

As to G11A G49U, the self-cleavage was 1.35.

With U12A U134A, the self-cleavage stood at 0.6.

With U12A U134C, the self-cleavage was 0.73.

In the case of G10A A50U, the self-cleavage was 1.32.

In the case of U12A A94G, the self-cleavage was found to be 0.55.

Turning to U9C C103U, the self-cleavage worked out at 1.4.

In the case of G10C U73C, the self-cleavage came to 1.64.

For U9C A142G, the self-cleavage is 1.24.

For U9C A142C, the self-cleavage was 0.83.

As for U9C A142U, the self-cleavage worked out at 1.38.

As for G10A A121G, the self-cleavage is 1.37.

Turning to U9C U112C, the self-cleavage was found to be 1.45.

In the case of U9C U112A, the self-cleavage is 1.46.

U9A G72A: the self-cleavage was determined as 0.81.

Take U12A A30G: the self-cleavage amounted to 0.94.

Regarding U9C U81G, the self-cleavage worked out at 1.31.

For the variant G11A G60A, the self-cleavage was found to be 0.01.

On to U12A U13C, for which the self-cleavage worked out at 1.58.

Consider G11U U130C, for which the self-cleavage was found to be 1.

For the variant U12A C123U, the self-cleavage turned out to be 1.38.

Consider G11A U46C, for which the self-cleavage was determined as 0.94.

For the variant U9G A140G, the self-cleavage was found to be 0.

Take U12A U45C: the self-cleavage worked out at 0.82.

In the case of G11A C95A, the self-cleavage was 0.06.

As to G10A A59G, the self-cleavage stood at 0.17.

For U9C A59U, the self-cleavage was 0.72.

Consider U9C A64G, for which the self-cleavage was found to be 0.45.

Turning to U12A U96G, the self-cleavage was found to be 0.38.

Take U12A U102C: the self-cleavage is 1.42.

Regarding U12A C113U, the self-cleavage is 1.36.

Consider G10A U104C, for which the self-cleavage amounted to 0.37.

As to G11C A57G, the self-cleavage stood at 0.71.

As to U9G A22G, the self-cleavage is 0.93.

As to U9C G89C, the self-cleavage stood at 0.05.

Take U9C G89U: the self-cleavage came to 0.08.

U9A U132C: the self-cleavage is 1.04.

For the variant G10A C99A, the self-cleavage came to 0.42.

In the case of U9A G105A, the self-cleavage came to 1.35.

For U9G U45A, the self-cleavage amounted to 0.73.

Regarding U9G U45C, the self-cleavage amounted to 0.25.

U9A G93A: the self-cleavage amounted to 0.06.

As to U9A G93U, the self-cleavage was 0.3.

U9A U23A: the self-cleavage turned out to be 0.36.

Take U9A U108C: the self-cleavage came out at 0.9.

As for U12C A64U, the self-cleavage came out at 1.53.

U12C A64C: the self-cleavage is 0.7.

For the variant U9G A31C, the self-cleavage was 1.72.

For the variant U12A A140G, the self-cleavage worked out at 1.51.

Take U12A A140U: the self-cleavage worked out at 1.09.

G11A A79G: the self-cleavage was 0.56.

As for U9C A69G, the self-cleavage came out at 0.83.

In the case of U9A U87G, the self-cleavage is 0.23.

On to U9C U26C, for which the self-cleavage came to 1.35.

Consider U12C A22G, for which the self-cleavage came out at 1.64.

On to U9C G122A, for which the self-cleavage was determined as 1.43.

U9C C128U: the self-cleavage amounted to 1.52.

With U9A G32A, the self-cleavage was 1.73.

Take G11U A124U: the self-cleavage is 1.31.

Turning to U12C A67U, the self-cleavage was 0.21.

For the variant U12C A67G, the self-cleavage amounted to 0.77.

For the variant U12C A67C, the self-cleavage was determined as 0.09.

Regarding U12A A59U, the self-cleavage is 0.56.

On to U9C U115C, for which the self-cleavage is 1.29.

With U9C U115A, the self-cleavage was 1.55.

As to U12A A141G, the self-cleavage is 1.19.

Regarding G10A U73G, the self-cleavage was found to be 1.14.

In the case of U9C U143C, the self-cleavage was 1.31.

Turning to U9A G80A, the self-cleavage turned out to be 1.92.

With U9C G27A, the self-cleavage is 1.16.

As to G10U, the self-cleavage is 1.26.

For the variant G10A, the self-cleavage was determined as 1.11.

As to G10C, the self-cleavage turned out to be 0.79.

As for G10A C90U, the self-cleavage amounted to 0.06.

As to G10A U81A, the self-cleavage amounted to 2.3.

On to G10A A136U, for which the self-cleavage stood at 0.95.

On to U9C A121U, for which the self-cleavage was 1.32.

Consider U9C C84A, for which the self-cleavage came out at 0.26.

With U9C G93A, the self-cleavage came to 0.05.

On to U9C G137A, for which the self-cleavage was 1.15.

Regarding U9A G89A, the self-cleavage is 0.1.

Consider G11A A59G, for which the self-cleavage is 0.08.

Consider U9G U134C, for which the self-cleavage amounted to 0.71.

On to U9C U39A, for which the self-cleavage came out at 1.17.

Regarding U9C U39C, the self-cleavage stood at 1.14.

Regarding U9G U108C, the self-cleavage amounted to 1.37.

G10U A59U: the self-cleavage stood at 0.72.

G10U U91C: the self-cleavage came to 0.44.

In the case of U9G G93C, the self-cleavage was determined as 0.11.

Take U9G A124C: the self-cleavage was determined as 0.

Regarding U9G A77U, the self-cleavage was found to be 1.44.

In the case of U9A U112C, the self-cleavage came to 1.32.

Take U9A U112A: the self-cleavage was 0.82.

As to U9C G36U, the self-cleavage worked out at 2.08.

In the case of G11A U119A, the self-cleavage is 0.93.

Consider G10A A138G, for which the self-cleavage amounted to 1.2.

Take U12A A77G: the self-cleavage came out at 1.88.

As to G10A U14C, the self-cleavage was determined as 1.45.

On to U9G C56U, for which the self-cleavage worked out at 0.24.

In the case of G10A U45C, the self-cleavage was 1.4.

On to G10U U130C, for which the self-cleavage is 0.81.

As to U9A G74A, the self-cleavage was 1.09.

G11U U134G: the self-cleavage was 1.07.

For the variant U9C G106A, the self-cleavage turned out to be 1.71.

For the variant G10A A78U, the self-cleavage turned out to be 1.83.

On to U9A U46C, for which the self-cleavage came out at 0.98.

Turning to U9G G44A, the self-cleavage turned out to be 1.53.

Consider U9C U96A, for which the self-cleavage was 0.15.

For U9C U96C, the self-cleavage stood at 0.14.

As for U9A C145U, the self-cleavage was 1.64.

Turning to U12A U46C, the self-cleavage turned out to be 1.31.

Turning to G11U A136U, the self-cleavage was 1.26.

With U9C A141G, the self-cleavage came out at 1.36.

For the variant U9C A141U, the self-cleavage is 1.53.

In the case of U12A U47C, the self-cleavage was 1.17.

For the variant U12A U47A, the self-cleavage worked out at 0.67.

Consider U9C A57G, for which the self-cleavage came to 0.96.

Turning to U9A U15A, the self-cleavage turned out to be 1.07.

Consider U9A G27A, for which the self-cleavage is 0.81.

Take U9A G114C: the self-cleavage turned out to be 0.61.

Regarding G11A A78G, the self-cleavage amounted to 1.38.

Regarding G11A U13C, the self-cleavage came out at 0.51.

For U9G A50G, the self-cleavage worked out at 0.93.

The values above are taken from the RNAGym collection of RNA variant scans (doi:10.7554/elife.90254).
